Several values for one entry are separate records, joined by “and”; a condition that tells them apart may be missing. Equal values may be shown once.
T1: soluble CD95L (Enzo Life Sciences) (UniProt P48023 130-281)
T1 construct: soluble CD95 ligand (CD95L, Fas ligand); The conclusion calls it the unmodified CD95L; also called sCD95L; source: bought: Enzo Life Sciences
T1 sequence (looked up): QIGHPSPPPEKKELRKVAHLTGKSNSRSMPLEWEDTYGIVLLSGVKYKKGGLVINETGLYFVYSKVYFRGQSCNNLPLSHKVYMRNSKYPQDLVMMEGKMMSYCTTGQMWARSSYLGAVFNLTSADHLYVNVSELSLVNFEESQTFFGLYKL

B1: CD95L-IZ-His (His8-TEV-Cys-IZ-CD95L (137-281), secreted form) (ligand)
chain: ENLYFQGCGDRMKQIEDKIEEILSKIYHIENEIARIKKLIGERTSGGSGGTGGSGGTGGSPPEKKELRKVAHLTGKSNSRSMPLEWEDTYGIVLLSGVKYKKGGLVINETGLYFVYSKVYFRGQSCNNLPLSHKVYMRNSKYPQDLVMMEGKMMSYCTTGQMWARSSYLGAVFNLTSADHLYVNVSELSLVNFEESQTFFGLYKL
modifications: glycosylated (the paper suggests three to five N-glycans)
notes: TEV protease site ENLYFQ, extra cysteine, isoleucine zipper (IZ, variant of the GCN4 leucine zipper) and linker; CD95 ligand (CD95L, Fas ligand, CD178, TNFSF6), human, extracellular domain, amino acids 137-281; The natural CD95L part is fused to a designed trimerisation motif; also called CD95L-IZ with His-tag; CD95-IZ-His; source: HEK293T, transient transfection (PEI), secreted into the medium; …
B2: CD95-His receptor protein (Sino Biological) (receptor, UniProt P25445 26-173, looked up)
chain: QVTDINSKGLELRKTVTTVETQNLEGLHHDGQFCHKPCPPGERKARDCTVNGDEPDCVPCQEGKEYTDKAHFSSKCRRCRLCDEGHGLEVEINCTRTQNTKCRCKPNFFCNSTVCEHCDPCTKCEHGIIKECTLTSNTKCKEEGSRSN
notes: CD95 (Fas, Apo-1) receptor protein with His-tag; also called Fas; Apo-1; source: bought: Sino Biological
B3: CD95L-IZ-biotin (CD95L-IZ after His-tag cleavage, biotinylated at the extra cysteine) (ligand)
chain: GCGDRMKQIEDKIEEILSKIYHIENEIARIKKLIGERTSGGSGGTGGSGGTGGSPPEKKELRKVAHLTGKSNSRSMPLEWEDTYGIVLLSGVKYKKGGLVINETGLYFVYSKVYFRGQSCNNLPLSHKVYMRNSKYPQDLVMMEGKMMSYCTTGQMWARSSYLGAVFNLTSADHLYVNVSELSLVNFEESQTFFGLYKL
modifications: biotin (biotin-C5-maleimide) on the extra cysteine; glycosylated
notes: What is left after TEV cleavage: Gly, extra cysteine, isoleucine zipper (IZ) and linker; CD95 ligand (CD95L, Fas ligand, CD178, TNFSF6), human, extracellular domain, amino acids 137-281; also called CD95L-IZ-X; source: HEK293T, transient transfection, secreted; purified (anti-His-tag antibody agarose beads), His-tag cut with TEV protease, labelled with biotin-C5-maleimide; not shown: His8, …

Experiments:
[1] = target: the molecule itself; assay: SEC; Superdex 75 10/300 GL, PBS pH 7.4, 0.3 ml/min; 350 µl CD95L-IZ-His at 0.409 mg/ml; protein standard mix for sizes; curve fitted with three Gaussians
[2] = target: T1, soluble CD95L (Enzo Life Sciences); assay: ELISA; CD95-His coated at 2 µg/ml in PBS overnight at 4 °C; ligand 0.1-100 nM in 0.5 % BSA/PBST, 2 h at r.t.; detected with anti-CD95L antibody and HRP secondary; 4-parameter logistic fit; conditions: both partners purified
[3] = target: B2; assay: as above; conditions: both partners purified

For B1, the “stoichiometry N” value [1] was 3 and 2.

In the case of B2, the Kd [2] is reported as 11.3 nM.

Work on B3 yielded a Kd [3] of 0.68 nM.

From article doi:10.1101/2024.10.12.618001, “High yield purification of an Isoleucine zipper modified CD95 Ligand with either biotin or DNA-oligomer binding domain for efficient Cell Apoptosis Induction” (bioRxiv, 2024)
